Measurements taken from patent US20080187528A1 (FUNCTIONAL GENETICS, published 2008).

Molecular target: T1, Ebola VP40 (1-326) (Ebola virus (EBOV), UniProt Q05128 1-326)
T1 sequence: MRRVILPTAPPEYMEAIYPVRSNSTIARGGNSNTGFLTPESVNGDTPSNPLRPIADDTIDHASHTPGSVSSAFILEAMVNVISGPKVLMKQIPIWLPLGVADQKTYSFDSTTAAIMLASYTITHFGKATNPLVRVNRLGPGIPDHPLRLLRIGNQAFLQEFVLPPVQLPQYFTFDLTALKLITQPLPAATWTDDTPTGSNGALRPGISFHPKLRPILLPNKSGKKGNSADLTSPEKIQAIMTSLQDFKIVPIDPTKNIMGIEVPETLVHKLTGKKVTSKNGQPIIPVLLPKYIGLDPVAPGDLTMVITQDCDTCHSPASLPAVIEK
Test: co-immunoprecipitation with anti-Myc antibody from 293T lysates

B1: TSG101 1-140 truncated mutant, C-terminally tagged with a Myc epitope (other)
chain: MAVSESQLKKMVSKYKYRDLTVRETVNVITLYKDLKPVLDSYVFNDGSSRELMNLTGTIPVPYRGNTYNIPICLWLLDTYPYNPPICFVKPTSSMTIKTGKHVDANGKIYLPYLHEWKHPQSDLLGLIQVMIVVFGDEPP
notes: Expressed in 293T cells
binding result: no binding
